# Laboratory results taken from patent publication US20120269817A1 (Bayer, published 2012).
# Positions count from the first letter of the chain named.
# T1: mouse tissue factor pathway inhibitor (TFPI) (mouse, UniProt O54819 29-289, limits assumed)
# T1 construct: Bought protein; also called mouse TFPI; mTFPI
# T1 sequence (looked up): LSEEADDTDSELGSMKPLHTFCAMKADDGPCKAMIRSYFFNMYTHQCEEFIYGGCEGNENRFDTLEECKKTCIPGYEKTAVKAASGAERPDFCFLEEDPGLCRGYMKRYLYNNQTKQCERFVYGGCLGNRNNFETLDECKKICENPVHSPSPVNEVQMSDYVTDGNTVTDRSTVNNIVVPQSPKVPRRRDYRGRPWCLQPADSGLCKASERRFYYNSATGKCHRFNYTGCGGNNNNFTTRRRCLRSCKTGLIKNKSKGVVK
# T2: human tissue factor pathway inhibitor (TFPI) (human, UniProt P10646 29-304, limits assumed)
# T2 construct: Bought protein; also called human TFPI; hTFPI
# T2 sequence (looked up): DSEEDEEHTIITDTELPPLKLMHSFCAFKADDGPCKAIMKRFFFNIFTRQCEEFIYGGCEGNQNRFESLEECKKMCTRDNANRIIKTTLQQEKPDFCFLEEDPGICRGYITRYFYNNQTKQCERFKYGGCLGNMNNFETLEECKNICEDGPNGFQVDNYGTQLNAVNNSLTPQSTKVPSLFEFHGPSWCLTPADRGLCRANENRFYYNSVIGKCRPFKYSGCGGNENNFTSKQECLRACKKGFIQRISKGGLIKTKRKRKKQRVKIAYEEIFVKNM
# T3: human TFPI K1 (human, UniProt P10646 29-107, limits assumed)
# T3 construct: domain: K1; also called Kunitz domain 1
# T3 sequence (looked up): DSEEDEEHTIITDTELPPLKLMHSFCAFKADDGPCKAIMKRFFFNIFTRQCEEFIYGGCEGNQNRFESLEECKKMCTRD
# B1: TP-4B7 Fab (Fab, V domains shown)
# VH: QVQLQQSGPGLVKPSQTLSLTCAISGDSVSSNSAAWSWIRQSPGRGLEWLGIIYKRSKWYNDYAVSVKSRITINPDTSKNQFSLQLNSVTPEDTAVYYCARWHSDKHWGFDYWGQGTLVTVSS
# VL: DIVMTQSPLSLPVTPGEPASISCRSSQSLVFSDGNTYLNWYLQKPGQSPQLLIYKGSNRASGVPDRFSGSGSGTDFTLKISRVEAEDVGVYYCQQYDSYPLTFGQGTKVEIKR
# notes: Human Fab from HuCal Gold, expressed in E. coli TG1
# B2: TP-3G1 Fab (Fab, V domains shown)
# VH: QVQLQQSGPGLVKPSQTLSLTCAISGDSVSSNSGGWGWIRQSPGRGLEWLGLIYYRSKWYNAYAVSVKSRITINPDTSKNQFSLQLNSVTPEDTAVYYCARYLGSNFYVYSDVWGQGTLVTVSS
# VL: DIQMTQSPSSLSASVGDRVTITCRASQGISSYLHWYQQKPGKAPKLLIYGASTLQSGVPSRFSGSGSGTDFTLTISSLQPEDFATYYCQQQNGYPFTFGQGTKVEIKR
# notes: as for B1
# B3: TP-2G9 Fab (Fab, V domains shown)
# VH: QVQLVESGGGLVQPGGSLRLSCAASGFTFNSYAMTWVRQAPGKGLEWVSAIKSDGSNTYYADSVKGRFTISRDNSKNTLYLQMNSLRAEDTAVYYCARNDSGWFDVWGQGTLVTVSS
# VL: DIALTQPASVSGSPGQSITISCTGTSSDLGGFNTVSWYQQHPGKAPKLMIYSVSSRPSGVSNRFSGSKSGNTASLTISGLQAEDEADYYCQSYDLNNLVFGGGTKLTVLG
# notes: as for B1
# B4: TP-2C7 Fab (Fab, V domains shown)
# VH: QVQLQQSGPGLVKPSQTLSLTCAISGDSVSSNSAAWGWIRQSPGRGLEWLGIIYYRSKWYNHYAVSVKSRITINPDTSKNQFSLQLNSVTPEDTAVYYCARSNWSGYFDYWGQGTLVTVSS
# VL: DIQMTQSPSSLSASVGDRVTITCRASQDIRNNLAWYQQKPGKAPKLLIYAASSLQSGVPSRFSGSGSGTDFTLTISSLQPEDFAVYYCQQRNGFPLTFGQGTKVEIKR
# notes: as for B1
# B5: TP-2G7 Fab (Fab, V domains shown)
# VH: QVQLVESGGGLVQPGGSLRLSCAASGFTFNSYAMSWVRQAPGKGLEWVSNISSNSSNTYYADSVKGRFTISRDNSKNTLYLQMNSLRAEDTAVYYCARKGGGEHGFFPSDIWGQGTLVTVSS
# VL: DIELTQPPSVSVAPGQTARISCSGDNLGTYYVHWYQQKPGQAPVLVIYGDNNRPSGIPERFSGSNSGNTATLTISGTQAEDEADYYCQTYDSNNESIVFGGGTKLTVLG
# notes: as for B1
# B6: TP-4G8 Fab (Fab, V domains shown)
# VH: QVQLVESGGGLVQPGGSLRLSCAASGFTFSTYAMHWVRQAPGKGLEWVSTISGYGSFTYYADSVKGRFTISRDNSKNTLYLQMNSLRAEDTAVYYCARNGRKYGQMDNWGQGTLVTVSS
# VL: DIELTQPPSVSVAPGQTARISCSGDKLGSKSVHWYQQKPGQAPVLVIYRDTDRPSGIPERFSGSNSGNTATLTISGTQAEDEADYYCQTYDYILNVFGGGTKLTVLG
# notes: as for B1
# B7: TP-4B7 chimeric IgG (antibody, V domains shown)
# VH: B1 VH
# VL: B1 VL
# notes: Chimeric IgG: human variable regions on mouse constant regions, murine IgG1 isotype, made in HKB11 cells
# B8: TP-3G1 chimeric IgG (antibody, V domains shown)
# VH: B2 VH
# VL: B2 VL
# notes: as for B7
# B9: TP-3C2 chimeric IgG (antibody, V domains shown)
# VH: QVQLQQSGPGLVKPSQTLSLTCAISGDSVSSSSAAWSWIRQSPGRGLEWLGMIYYRSKWYNHYAVSVKSRITINPDTSKNQFSLQLNSVTPEDTAVYYCARGGSGVMDVWGQGTLVTVSS
# VL: B4 VL with D28S, R30T, N32Y, A34N, A50D, A51V, S53N, R91Y, N92S, F94Y
# notes: as for B7
# B10: TP-2A8-IgG (antibody, V domains shown)
# VH: QVQLVESGGGLVQPGGSLRLSCAASGFTFRSYGMSWVRQAPGKGLEWVSSIRGSSSSTYYADSVKGRFTISRDNSKNTLYLQMNSLRAEDTAVYYCARKYRYWFDYWGQGTLVTVSS
# VL: DIELTQPPSVSVAPGQTARISCSGDNLRNYYAHWYQQKPGQAPVVVIYYDNNRPSGIPERFSGSNSGNTATLTISGTQAEDEADYYCQSWDDGVPVFGGGTKLTVLG
# notes: as for B7
# B11: TP-2B3 chimeric IgG (antibody, V domains shown)
# VH: QVQLQQSGPGLVKPSQTLSLTCAISGDSVSSNSAAWGWIRQSPGRGLEWLGMIYYRSKWYNSYAVSVKSRITINPDTSKNQFSLQLNSVTPEDTAVYYCARTMSKYGGPGMDVWGQGTLVTVSS
# VL: DIVLTQSPATLSLSPGERATLSCRASQNIGSNYLAWYQQKPGQAPRLLIYGASTRATGVPARFNGSGSGTDFTLTISSLEPEDFAVYYCQQLNSIPVTFGQGTKVEIKR
# notes: as for B7
# Molecular target: T1, mouse tissue factor pathway inhibitor …
# Assay: ELISA, Fab on coated TFPI
# In short: (§1)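 Purified Fabs titrated on human or mouse TFPI-coated plates; bound Fab detected with HRP anti-human Fab and AmplexRed/H2O2 to derive EC50. Affinity and kinetics by Biacore: TFPI amine-coupled on CM5 (~300 RU), Fabs in mobile phase at 0.1, 0.4, 1.6, 6.4 and 25 nM.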
row,Binder,EC50
1,B1,2.64 nM
2,B2,8.68 nM
3,B3,194 nM
4,B4,0.6 nM

# Molecular target: T2, human tissue factor pathway inhibitor …
# Assay: ELISA, Fab on coated TFPI
# In short: as §1
row,Binder,EC50
1,B1,0.74 nM
2,B2,74.4 nM
3,B3,10.8 nM
4,B4,0.6 nM
5,B5,23.5 nM
6,B6,847 nM

# Molecular target: T3, human TFPI K1
# Assay: Western blots and ELISA
# Procedure: Western blots and ELISA were used to determine which domain(s) of TFPI of the inhibitory antibodies bind. Recombinant full length human TFPI or TFPI domains were used for these studies. ELISA was similar to Example 3. In the Western Blot, human TFPI or domains were run on 4-12% Bis-Tris SDS PAGE running buffer MES (Invitrogen, Carlsbad, Calif.) and then transferred to cellulose membrane. After incubation with inhibitory antibodies for 10 min, the membrane was washed three times using SNAPid system (Millipore, Billerica, Mass.). A HRP conjugated donkey anti-mouse antibody (Pierce, Rockford, Ill.) at 1 to 10,000 dilution was incubated with the membrane for 10 min. After a similar wash step, the membrane was developed using SuperSignal substrate (Pierce, Rockford, Ill.). Whereas the control anti-Kunitz domain 1 antibody binds to full length TFPI, truncated TFPI and domains, inhibitory anti-TFPI antibodies only bind to TFPI containing Kunitz domain 2.
row,Binder,binding result
1,B7,no binding
2,B8,no binding
3,B9,no binding
4,B10,no binding
5,B11,no binding

# Molecular target: T2, human tissue factor pathway inhibitor …
# Assay: cell-based or functional assay
Binder,% inhibition of hTFPI activity,dPT in hemoA plasma
B1,100%,53.9 s
B2,93%,75.1 s
B3,0%,82.7 s
B4,0%,62.5 s
B5,55%,72.2 s
B6,39%,73.9 s

# Molecular target: T1, mouse tissue factor pathway inhibitor …
# Assay: Biacore, TFPI on CM5 chip, Fab in mobile phase
# In short: (§2)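 Surface plasmon resonance with human or mouse TFPI amine-coupled to a CM5 chip at approximately 300 RU. Purified Fabs were injected in mobile phase at 0.1, 0.4, 1.6, 6.4 and 25 nM. Kinetics and binding affinity were derived from the sensorgrams.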
row,Binder,Kd
1,B1,51.8 nM
2,B2,49.1 nM
3,B3,35.7 nM
4,B4,9.33 nM

# Molecular target: T2, human tissue factor pathway inhibitor …
# Assay: Biacore, TFPI on CM5 chip, Fab in mobile phase
# In short: as §2
row,Binder,Kd
1,B1,15.8 nM
2,B2,1140 nM
3,B3,48.5 nM
4,B4,2.01 nM
5,B5,26.9 nM
6,B6,25.2 nM

# Molecular target: T1, mouse tissue factor pathway inhibitor …
# Assay: ELISA, Fab on coated mouse TFPI
# Procedure: To select antibody clones that bind to human TFPI, Fab genes of the phage clones from the second and third round of panning were subcloned into a bacterial expression vector and expressed in E. coli strain TG1. The bacterial lysate was added to the wells of the human TFPI-coated Maxisorp plates. After washing, HRP-conjugated goat anti-human Fab was used as a detection antibody and the plates were developed by adding AmplexRed (Invitrogen) with hydrogen peroxide. A signal of at least five-fold higher than the background was considered as positive. The cross reactivity of the anti-human TFPI antibodies to mouse TFPI was determined by a similar mouse TFPI-binding ELISA. The plates were coated with mouse TFPI (R&D System), BSA and lysozyme. The later two antigens were used as negative controls.
row,Binder,binding result
1,B5,no binding
2,B6,no binding

# Molecular target: T4, BSA (bovine, UniProt P02769 25-607)
# T4 construct: also called bovine serum albumin
# T4 sequence (P02769 25-607 limits assumed): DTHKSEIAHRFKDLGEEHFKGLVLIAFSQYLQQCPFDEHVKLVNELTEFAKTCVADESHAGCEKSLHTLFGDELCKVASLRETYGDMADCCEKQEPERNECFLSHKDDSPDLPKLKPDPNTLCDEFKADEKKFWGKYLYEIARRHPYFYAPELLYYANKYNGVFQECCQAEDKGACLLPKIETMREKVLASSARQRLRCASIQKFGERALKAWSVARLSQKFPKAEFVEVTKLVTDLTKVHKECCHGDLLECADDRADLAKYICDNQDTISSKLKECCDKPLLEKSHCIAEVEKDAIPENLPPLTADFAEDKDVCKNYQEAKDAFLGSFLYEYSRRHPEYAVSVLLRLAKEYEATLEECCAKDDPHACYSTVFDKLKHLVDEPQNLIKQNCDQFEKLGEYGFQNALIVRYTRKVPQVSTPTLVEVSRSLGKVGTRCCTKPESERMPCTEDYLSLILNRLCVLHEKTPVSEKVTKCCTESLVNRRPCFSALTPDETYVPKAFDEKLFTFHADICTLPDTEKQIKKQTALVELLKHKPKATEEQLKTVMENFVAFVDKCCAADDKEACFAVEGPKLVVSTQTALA
# Assay: ELISA
# In short: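 Fab from E. coli TG1 lysates bound to plates coated with human TFPI, or with mouse TFPI for cross-reactivity, with BSA and lysozyme as negative controls. Detection by HRP-anti-human Fab with AmplexRed/H2O2; signal ≥5-fold over background scored positive.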
row,Binder,binding result
1,B1,no binding
2,B2,no binding
3,B3,no binding
4,B4,no binding
5,B5,no binding
6,B6,no binding
